Drawing on article PMC10648297, this text covers stoichiometry N for one substance.

The assay concerns the target 2-cysteine (Cys) peroxiredoxin A, recombinant mature wild type, tag-free (Arabidopsis). Description: LC/MS of the intact protein (deconvoluted masses); oxidised 2CPA with 0 to 19.2 mM GSH and NEM, 50 mM Tris pH 7.5, 25 °C; C4 column, acetonitrile gradient with 0.1% HCOOH; shows disulfide-linked dimers.

For the substance “2-cysteine (Cys) peroxiredoxin A, recombinant mature wild type, tag-free (enzyme)”, the stoichiometry N (as a rule, a count of units in the complex or per binding partner) turned out to be 2.
